# Assay results as given in patent publication US20180164286A1.
# Molecular target: Small BiT (SB)-eIF4E, full-length
# Assay: cell-based or functional assay
# Chain of Small BiT (SB)-eIF4E, full-length (chain, as listed by the source limits assumed): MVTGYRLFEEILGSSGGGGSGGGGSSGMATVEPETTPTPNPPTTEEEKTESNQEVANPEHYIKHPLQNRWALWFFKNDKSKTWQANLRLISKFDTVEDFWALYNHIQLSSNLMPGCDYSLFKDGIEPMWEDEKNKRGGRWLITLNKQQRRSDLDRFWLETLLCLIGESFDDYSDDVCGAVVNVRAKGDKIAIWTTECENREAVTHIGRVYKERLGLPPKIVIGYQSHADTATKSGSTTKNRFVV
# Chain of LB-4E-BP1 - residues 29 to end (Q13541 29-118): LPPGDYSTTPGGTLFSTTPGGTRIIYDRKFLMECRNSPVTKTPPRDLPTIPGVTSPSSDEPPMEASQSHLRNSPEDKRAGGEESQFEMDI
row,"fold-change of split-luciferase luminescence, rapamycin (50 nM, 1 h) over vehicle; HEK293 cells [fold]",Substance
1,1.18,Full-length 4E-BP1 with C-terminal LB (from UniProt Q13541 2-118)
2,0.89,LB-4E-BP1 - residues 29 to end (from UniProt Q13541 29-118)
3,0.98,4E-BP1 with C-terminal LB at residue 95 (from UniProt Q13541 1-95)
4,0.89,4E-BP1 with C-terminal LB at residue 85 (from UniProt Q13541 1-85)
